B1: Thyroid hormone receptor beta (Homo sapiens), P10828-1 (parent)
chain: MTPNSMTENGLTAWDKPKHCPDREHDWKLVGMSEACLHRKSHSERRSTLKNEQSSPHLIQTTWTSSIFHLDHDDVNDQSVSSAQTFQTEEKKCKGYIPSYLDKDELCVVCGDKATGYHYRCITCEGCKGFFRRTIQKNLHPSYSCKYEGKCVIDKVTRNQCQECRFKKCIYVGMATDLVLDDSKRLAKRKLIEENREKRRREELQKSIGHKPEPTDEEWELIKTVTEAHVATNAQGSHWKQKRKFLPEDIGQAPIVNAPEGGKVDLEAFSHFTKIITPAITRVVDFAKKLPMFCELPCEDQIILLKGCCMEIMSLRAAVRYDPESETLTLNGEMAVTRGQLKNGGLGVVSDAIFDLGMSLSSFNLDDTEVALLQAVLLMSSDRPGLACVERIEKYQDSFLLAFEHYINYRKHHVTHFWPKLLMKVTDLRMIGACHASRFLHMKVECPTELFPPLFLEVFED

Experiments:
[1] = variants of: B1; conditions: with ncor2_human NCOR2, Q9Y618
Sequence of ncor2_human NCOR2, Q9Y618 (Q9Y618 whole entry): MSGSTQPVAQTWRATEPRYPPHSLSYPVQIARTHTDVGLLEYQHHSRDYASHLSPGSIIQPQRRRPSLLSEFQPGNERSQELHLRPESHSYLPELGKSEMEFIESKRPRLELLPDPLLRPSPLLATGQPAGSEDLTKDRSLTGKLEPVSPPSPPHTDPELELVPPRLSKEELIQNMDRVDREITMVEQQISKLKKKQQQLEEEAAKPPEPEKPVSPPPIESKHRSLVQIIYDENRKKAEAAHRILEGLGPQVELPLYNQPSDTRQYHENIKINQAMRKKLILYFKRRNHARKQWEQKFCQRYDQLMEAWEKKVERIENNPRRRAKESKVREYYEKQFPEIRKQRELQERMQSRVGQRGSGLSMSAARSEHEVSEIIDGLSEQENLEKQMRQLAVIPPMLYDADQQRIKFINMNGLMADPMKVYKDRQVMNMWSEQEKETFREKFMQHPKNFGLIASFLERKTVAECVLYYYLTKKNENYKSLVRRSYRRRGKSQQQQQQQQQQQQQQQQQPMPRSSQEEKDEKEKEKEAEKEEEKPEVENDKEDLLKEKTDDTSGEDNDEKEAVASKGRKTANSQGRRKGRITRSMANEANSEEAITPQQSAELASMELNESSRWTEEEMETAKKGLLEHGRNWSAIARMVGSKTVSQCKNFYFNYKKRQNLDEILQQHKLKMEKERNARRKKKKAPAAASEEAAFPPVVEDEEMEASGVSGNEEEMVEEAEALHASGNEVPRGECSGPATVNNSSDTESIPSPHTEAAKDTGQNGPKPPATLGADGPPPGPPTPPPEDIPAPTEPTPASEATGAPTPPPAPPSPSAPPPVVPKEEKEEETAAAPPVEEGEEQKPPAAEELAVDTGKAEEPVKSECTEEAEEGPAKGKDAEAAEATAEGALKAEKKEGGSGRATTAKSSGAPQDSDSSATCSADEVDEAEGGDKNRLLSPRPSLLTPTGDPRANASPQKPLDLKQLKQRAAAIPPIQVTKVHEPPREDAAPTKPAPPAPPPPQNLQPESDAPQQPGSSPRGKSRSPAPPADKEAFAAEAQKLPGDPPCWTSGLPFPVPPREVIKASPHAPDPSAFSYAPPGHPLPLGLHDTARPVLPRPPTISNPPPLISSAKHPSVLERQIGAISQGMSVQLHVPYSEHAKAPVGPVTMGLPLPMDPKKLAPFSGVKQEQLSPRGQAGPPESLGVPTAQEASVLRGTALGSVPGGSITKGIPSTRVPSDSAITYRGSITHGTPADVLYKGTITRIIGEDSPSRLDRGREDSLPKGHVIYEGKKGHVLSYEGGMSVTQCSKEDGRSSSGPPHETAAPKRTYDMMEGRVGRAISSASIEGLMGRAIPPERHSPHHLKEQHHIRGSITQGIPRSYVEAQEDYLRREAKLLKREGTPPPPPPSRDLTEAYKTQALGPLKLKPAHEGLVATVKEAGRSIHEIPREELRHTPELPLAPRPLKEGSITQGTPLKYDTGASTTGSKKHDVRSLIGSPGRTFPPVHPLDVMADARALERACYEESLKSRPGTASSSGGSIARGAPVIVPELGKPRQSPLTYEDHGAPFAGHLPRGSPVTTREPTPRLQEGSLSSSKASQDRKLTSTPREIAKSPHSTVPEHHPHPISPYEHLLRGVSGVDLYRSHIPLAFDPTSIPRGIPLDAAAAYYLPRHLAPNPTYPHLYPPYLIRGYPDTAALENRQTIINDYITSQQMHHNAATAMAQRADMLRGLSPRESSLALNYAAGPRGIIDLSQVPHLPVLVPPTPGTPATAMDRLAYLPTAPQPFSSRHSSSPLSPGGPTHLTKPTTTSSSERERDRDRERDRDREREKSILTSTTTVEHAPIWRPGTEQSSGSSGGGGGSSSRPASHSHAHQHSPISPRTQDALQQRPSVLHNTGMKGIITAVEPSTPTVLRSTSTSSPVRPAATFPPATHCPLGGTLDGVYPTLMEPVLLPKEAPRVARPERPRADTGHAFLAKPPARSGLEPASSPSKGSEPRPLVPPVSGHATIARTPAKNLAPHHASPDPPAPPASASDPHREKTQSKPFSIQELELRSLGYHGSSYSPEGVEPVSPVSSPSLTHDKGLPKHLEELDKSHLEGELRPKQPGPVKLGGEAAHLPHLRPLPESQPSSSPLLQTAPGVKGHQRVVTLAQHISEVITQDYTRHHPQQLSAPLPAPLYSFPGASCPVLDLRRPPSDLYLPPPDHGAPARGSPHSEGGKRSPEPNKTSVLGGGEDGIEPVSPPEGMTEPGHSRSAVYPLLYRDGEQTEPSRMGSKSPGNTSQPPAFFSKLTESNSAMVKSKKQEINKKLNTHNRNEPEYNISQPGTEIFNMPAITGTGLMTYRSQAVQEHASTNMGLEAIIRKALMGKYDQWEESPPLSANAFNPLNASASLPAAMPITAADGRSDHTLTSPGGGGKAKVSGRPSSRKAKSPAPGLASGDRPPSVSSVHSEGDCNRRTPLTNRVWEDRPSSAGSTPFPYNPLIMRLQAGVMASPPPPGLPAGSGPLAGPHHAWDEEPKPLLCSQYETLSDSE

[2] = variants of: B1; conditions: with ncoa1_human NCOA1, Q15788
Sequence of ncoa1_human NCOA1, Q15788 (Q15788 whole entry): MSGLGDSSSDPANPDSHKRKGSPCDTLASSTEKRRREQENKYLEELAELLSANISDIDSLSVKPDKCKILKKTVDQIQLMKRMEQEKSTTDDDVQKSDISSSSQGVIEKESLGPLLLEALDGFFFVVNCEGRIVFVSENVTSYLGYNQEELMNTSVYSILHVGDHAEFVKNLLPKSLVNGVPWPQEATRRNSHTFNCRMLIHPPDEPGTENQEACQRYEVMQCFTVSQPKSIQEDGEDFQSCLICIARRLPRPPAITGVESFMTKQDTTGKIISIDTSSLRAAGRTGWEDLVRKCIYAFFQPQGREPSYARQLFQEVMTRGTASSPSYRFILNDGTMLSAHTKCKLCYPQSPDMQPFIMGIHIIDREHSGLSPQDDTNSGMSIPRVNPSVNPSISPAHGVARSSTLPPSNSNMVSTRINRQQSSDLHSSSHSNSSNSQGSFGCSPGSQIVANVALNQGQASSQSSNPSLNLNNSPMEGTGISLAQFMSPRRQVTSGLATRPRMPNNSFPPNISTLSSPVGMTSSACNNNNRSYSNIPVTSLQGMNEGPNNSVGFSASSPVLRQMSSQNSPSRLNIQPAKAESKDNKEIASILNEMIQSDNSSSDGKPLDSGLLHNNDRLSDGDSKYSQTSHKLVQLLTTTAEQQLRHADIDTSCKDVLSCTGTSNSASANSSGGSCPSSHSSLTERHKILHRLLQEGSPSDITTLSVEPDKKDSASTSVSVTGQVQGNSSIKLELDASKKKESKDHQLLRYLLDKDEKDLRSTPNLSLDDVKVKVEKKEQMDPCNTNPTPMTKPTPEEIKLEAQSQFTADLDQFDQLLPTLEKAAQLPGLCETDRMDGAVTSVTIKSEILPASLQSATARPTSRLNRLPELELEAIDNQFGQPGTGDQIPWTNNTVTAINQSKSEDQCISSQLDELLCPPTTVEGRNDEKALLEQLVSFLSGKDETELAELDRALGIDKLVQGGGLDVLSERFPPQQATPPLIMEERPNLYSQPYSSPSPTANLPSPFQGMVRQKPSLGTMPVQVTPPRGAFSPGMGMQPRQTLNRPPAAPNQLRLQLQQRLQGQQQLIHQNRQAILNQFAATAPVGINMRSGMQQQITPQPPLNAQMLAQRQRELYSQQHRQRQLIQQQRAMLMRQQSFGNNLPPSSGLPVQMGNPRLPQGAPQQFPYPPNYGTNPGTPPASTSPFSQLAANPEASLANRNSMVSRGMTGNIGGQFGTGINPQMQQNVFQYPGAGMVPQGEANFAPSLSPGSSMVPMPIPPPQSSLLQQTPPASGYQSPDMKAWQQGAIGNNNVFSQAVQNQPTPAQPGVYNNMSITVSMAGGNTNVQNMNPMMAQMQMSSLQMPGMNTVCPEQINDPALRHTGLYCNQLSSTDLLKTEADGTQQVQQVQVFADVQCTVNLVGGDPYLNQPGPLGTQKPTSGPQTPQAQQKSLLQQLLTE

Row | Variant | effect of a mutation on the interaction [1] | effect of a mutation on the interaction [2]
1 | MTPNSMTENGLTAWDKPKHCPDREHDWKLVGMSEACLHRKSHSERRSTLKNEQSSPHLIQTTWTSSIFHLDHDDVNDQSVSSAQTFQTEEKKCKGYIPSYLDKDELCVVCGDKATGYHYRCITCEGCKGFFRRTIQKNLHPSYSCKYEGKCVIDKVTRNQCQECRFKKCIYVGMATDLVLDDSKRLAKRKLIEENREKRRREELQKSIGHKPEPTDEEWELIKTVTEAHVATNAQGSHWKQKRKFLPEDIGQAPIVNAPEGGKVDLEAFSHFTKIITPAITRVVDFAKKLPMFCELPCEDQIILLKGCCMEIMSLRAAVRYDPESETLTLNGEMAVTRGQLKNGGLGVVSDAIFDLGMSLSSFNLDDTEVALLQAVLLMSSDHPGLACVERIEKYQDSFLLAFEHYINYRKHHVTHFWPKLLMKVTDLRMIGACHASRFLHMKVECPTELFPPLFLEVFED [R383H] | increasing interaction strength | increasing interaction strength
2 | MTPNSMTENGLTAWDKPKHCPDREHDWKLVGMSEACLHRKSHSERRSTLKNEQSSPHLIQTTWTSSIFHLDHDDVNDQSVSSAQTFQTEEKKCKGYIPSYLDKDELCVVCGDKATGYHYRCITCEGCKGFFRRTIQKNLHPSYSCKYEGKCVIDKVTRNQCQECRFKKCIYVGMATDLVLDDSKRLAKRKLIEENREKRRREELQKSIGHKPEPTDEEWELIKTVTEAHVATNAQGSHWKQKRKFLPEDIGQAPIVNAPEGGKVDLEAFSHFTKIITPAITRVVDFAKKLPMFCELPCEDQIILLKGCCMEIMSLRAAVRYDPESETLTLNGEMAVTRGQLKNGGLGVVSDAIFDLGMSLSSFNLDDTEVALLQAVLLMSSDRPGLACVERIEKYQDSFLLAFEHYINYRKHHVTHFWPKLLMKVTDLQMIGACHASRFLHMKVECPTELFPPLFLEVFED [R429Q] | increasing interaction strength | increasing interaction strength
